# Data: publication PMC10716122
# Columns and labels:
# [1] = target: LINE-1 (L1) ORF1p (human) (UniProt Q9UN81); assay: not stated; formation of the ORF1p trimer with or without cGAS, Supplementary Fig. 2o; method not given
# TRIM41 = TRIM41 (UniProt Q8WV44); assay: co-immunoprecipitation; settings: reference: wild-type cGAS
substance,measurement,setting,value
LINE-1 (L1) ORF1p (from UniProt Q9UN81 1-338) (natural protein),stoichiometry N,[1],3
cGAS (from UniProt Q8N884) S120A,binding against the reference,TRIM41; sites S120,weaker
cGAS (from UniProt Q8N884) S305A,binding against the reference,TRIM41; sites S305,weaker
